51 variants from the RNAGym collection of RNA variant scans (doi:10.1101/gr.219683.116) can be followed below.

B1: mRNA-splicing (parent)
chain: AGUUGCUGCUGGGAGCUCCAGCACAGUGAAAUGGACAGAAGGGCAGAGCAA

In this data set the parent is B1. Kind of data set: exon inclusion enrichment index; higher = more inclusion; WT1 exon 5 minigene, HEK293.
For the variant AGUUACCACCGGGAGCUCCAGCACAGUGAAAUGGACAGAGCGGCAGAGCAA [G5A U7C G8A U10C A40G G41C], the “exon inclusion enrichment index” value came to 3.76.

On to AGUUGACGACGGGAGCUCCAGCACAGUGAAAUGGACAGAAGGGAUGAGCAA [C6A U7C C9A U10C C44A A45U], for which the “exon inclusion enrichment index” value was 5.42.

AGUUCUUCUCGGGAGCUCCAGCACAGUAUAAUGGACAGAAGGGCAGAGCAA [G5C C6U G8C C9U U10C G28A A29U]: the “exon inclusion enrichment index” value is 0.475.

On to AGUUCUUCUCGGGAGUACCAGCACAGUGAAAUGGACAGAAGGGCAGAGCAA [G5C C6U G8C C9U U10C C16U U17A], for which the “exon inclusion enrichment index” value is 1.65.

As to AGUUUCUUUUGGGAGCUCCAGCACAGUGCAAUGGACAGAAGGGCAGAGCAA [G5U G8U C9U A29C], the “exon inclusion enrichment index” value worked out at 0.0814.

Turning to AGUUCUUCUCGGGAGCUCCAGCACAGUGAACAGGACAGAAGGGCAGAGCAA [G5C C6U G8C C9U U10C A31C U32A], the “exon inclusion enrichment index” value turned out to be 1.46.

With AGUUGACGACGGGAGCUCCAGCACAGUGAAAUGGAAGGAAGGGCAGAGCAA [C6A U7C C9A U10C C36A A37G], the “exon inclusion enrichment index” value came out at 1.73.

Consider AGUUCACACAGGGAGCUCCAGCACAGUCAAAUGGACAGAAGGGCAGAGCAA [G5C C6A U7C G8A U10A G28C], for which the “exon inclusion enrichment index” value stood at 0.0496.

For the variant AGUUCGCGCCGGGAACUCCAGCACAGUGAAAUGGACAGAAGGGCAGAGCAA [G5C C6G U7C U10C G15A], the “exon inclusion enrichment index” value is 2.71.

Take AGUUCACACAGGGAGUUCCAGCACAGUGAAAUGGACAGAAGGGCAGAGCAA [G5C C6A U7C G8A U10A C16U]: the “exon inclusion enrichment index” value was 0.0868.

With AGUUCACACAGGGAGCUCCAGCACAGUGAAAGCGACAGAAGGGCAGAGCAA [G5C C6A U7C G8A U10A U32G G33C], the “exon inclusion enrichment index” value is 0.0862.

Consider AGUUCUUCUCGGGAAUUCCAGCACAGUGAAAUGGACAGAAGGGCAGAGCAA [G5C C6U G8C C9U U10C G15A C16U], for which the “exon inclusion enrichment index” value was determined as 1.27.

Take AGUUCACACAGGGAGCUCCAGCACUCUGAAAUGGACAGAAGGGCAGAGCAA [G5C C6A U7C G8A U10A A25U G26C]: the “exon inclusion enrichment index” value worked out at 0.181.

With AGAAAGGGAUGGGAGCUCCAGCACAGUGAAAUGGACAGAAGGGCAGAGCAA [U3A U4A G5A C6G U7G C9A], the “exon inclusion enrichment index” value was 0.0117.

As to AGUUCUUCUCGGGAGCUCCAGCACAGUGAAAUGGACAAUAGGGCAGAGCAA [G5C C6U G8C C9U U10C G38A A39U], the “exon inclusion enrichment index” value was 0.134.

AGUUAUAUAUGGGAGCUCCAGCACAGCUAAAUGGACAGAAGGGCAGAGCAA [G5A C6U U7A G8U C9A U27C G28U]: the “exon inclusion enrichment index” value was 0.0508.

With AGUUCACACAGGAUGCUCCAGCACAGUGAAAUGGACAGAAGGGCAGAGCAA [G5C C6A U7C G8A U10A G13A A14U], the “exon inclusion enrichment index” value turned out to be 0.645.

As for AGUUCACACAGGGAGCUCGGGCACAGUGAAAUGGACAGAAGGGCAGAGCAA [G5C C6A U7C G8A U10A C19G A20G], the “exon inclusion enrichment index” value was 0.0527.

AGUUAUAUAUGGGAGCUGGAGCACAGUGAAAUGGACAGAAGGGCAGAGCAA [G5A C6U U7A G8U C9A C18G C19G]: the “exon inclusion enrichment index” value worked out at 0.0648.

For AGUUGCUGCUGGCUGCUCCAGCACAGUGAAAUGGACAGAAGGGCAGAGCAA [G13C A14U], the “exon inclusion enrichment index” value was 0.194.

For the variant AGUUCGGACCGGGAGCUCCAGCACAGUGAAAUGGACAGAAGGGCAGAGCAA [G5C C6G U7G G8A U10C], the “exon inclusion enrichment index” value was 2.87.

Regarding AGUCGAAGAAGGGAGCUCCAGCACAGUGAAAUGGACAGAAGGGCAGAGCAA [U4C C6A U7A C9A U10A], the “exon inclusion enrichment index” value came to 1.51.

Take AGUUAAUUUUGGGAGCUCCAGCACAGUGAAAUGGACAGAAGGGCAGAGCAA [G5A C6A G8U C9U]: the “exon inclusion enrichment index” value stood at 0.0445.

As to AGUUGCUGCUAAGAGCUCCAGCACAGUGAAAUGGACAGAAGGGCAGAGCAA [G11A G12A], the “exon inclusion enrichment index” value is 0.676.

For AGUUACCACCGGGAGCUCCAGCACAGUGAAAUCCACAGAAGGGCAGAGCAA [G5A U7C G8A U10C G33C G34C], the “exon inclusion enrichment index” value amounted to 1.34.

AGUUAUAUAUGGGAGCUCCAGCACCGUGAAAUGGACAGAAGGGCAGAGCAA [G5A C6U U7A G8U C9A A25C]: the “exon inclusion enrichment index” value was 0.501.

Turning to AGUUGAAGAAGGGAGCUCCAGCACAGUGGUAUGGACAGAAGGGCAGAGCAA [C6A U7A C9A U10A A29G A30U], the “exon inclusion enrichment index” value came out at 0.163.

Consider AGUUCGCGCCUUGAGCUCCAGCACAGUGAAAUGGACAGAAGGGCAGAGCAA [G5C C6G U7C U10C G11U G12U], for which the “exon inclusion enrichment index” value turned out to be 1.49.

Take AGUUGCUGCUGGGAGCUCCAGCACAGUGAAAUGGACAGAUAGGCAGAGCAA [A40U G41A]: the “exon inclusion enrichment index” value came to 0.00196.

Regarding AGUUGCUGCUGGGAGCUCCAGUCCAGUGAAAUGGACAGAAGGGCAGAGCAA [C22U A23C], the “exon inclusion enrichment index” value stood at 1.24.

For AGUUCUUCUCGGGAGCGACAGCACAGUGAAAUGGACAGAAGGGCAGAGCAA [G5C C6U G8C C9U U10C U17G C18A], the “exon inclusion enrichment index” value was 2.

Take AGUUAUAUAUGGGAGCUCGCGCACAGUGAAAUGGACAGAAGGGCAGAGCAA [G5A C6U U7A G8U C9A C19G A20C]: the “exon inclusion enrichment index” value turned out to be 0.0894.

AGUUACCACCGGGAGCUCCAGCACAGUGAAAUGGGCAGAAGGGCAGAGCAA [G5A U7C G8A U10C A35G]: the “exon inclusion enrichment index” value was 0.89.

For the variant AGUUGAAGAAGGGAGCUCCGCCACAGUGAAAUGGACAGAAGGGCAGAGCAA [C6A U7A C9A U10A A20G G21C], the “exon inclusion enrichment index” value was 0.891.

As to AGUUAUAUAUGGGAGCUCCCACACAGUGAAAUGGACAGAAGGGCAGAGCAA [G5A C6U U7A G8U C9A A20C G21A], the “exon inclusion enrichment index” value came to 0.0479.

With AGUUGACGACGGGAGCUCCAGCACAGUGAAAUGGACAGAAGAGCAGAGCAA [C6A U7C C9A U10C G42A], the “exon inclusion enrichment index” value worked out at 4.25.

As to AGUUGAAGAAGGGAGCUCCAGCACAGUGAUUUGGACAGAAGGGCAGAGCAA [C6A U7A C9A U10A A30U A31U], the “exon inclusion enrichment index” value stood at 0.426.

Regarding AGUUACCACCGGGAGCUCCGACACAGUGAAAUGGACAGAAGGGCAGAGCAA [G5A U7C G8A U10C A20G G21A], the “exon inclusion enrichment index” value stood at 2.82.

For the variant AGUUGACGACGGGAGCUCCAGCACAGUGAAAUGGACGUAAGGGCAGAGCAA [C6A U7C C9A U10C A37G G38U], the “exon inclusion enrichment index” value came out at 1.68.

Take AGUUCACACAGGGAGCUCCAGCACAGUGAAAAAGACAGAAGGGCAGAGCAA [G5C C6A U7C G8A U10A U32A G33A]: the “exon inclusion enrichment index” value was found to be 0.0122.

As for AGUUCACACAGACAGCUCCAGCACAGUGAAAUGGACAGAAGGGCAGAGCAA [G5C C6A U7C G8A U10A G12A G13C], the “exon inclusion enrichment index” value amounted to 0.0982.

For AGUUUCUUUUGGGAGCUCCAGCACAGUGAAAUGGACAGAAGGGCAGAGCAA [G5U G8U C9U], the “exon inclusion enrichment index” value was determined as 0.16.

For the variant AGUUCUUCUCGGGAGCUCCAGCACAGUGAAAUGGACAGAAGGGCAGGCCAA [G5C C6U G8C C9U U10C A47G G48C], the “exon inclusion enrichment index” value was found to be 0.706.

For the variant AGUUGACGACGGGAGCCCCAGCACAGUGAAAUGGACAGAAGGGCAGAGCAA [C6A U7C C9A U10C U17C], the “exon inclusion enrichment index” value amounted to 3.11.

For the variant AGUUUGUGCUGGGAGCUCCAGCACAGUGAAAUGGACAGAAGGGCAGAGCAA [G5U C6G], the “exon inclusion enrichment index” value amounted to 0.00229.

Turning to AGUUACCACGUGGAGCUCCAGCACAGUGAAAUGGACAGAAGGGCAGAGCAA [G5A U7C G8A U10G G11U], the “exon inclusion enrichment index” value worked out at 2.44.

Turning to AGUUACCACCGCUAGCUCCAGCACAGUGAAAUGGACAGAAGGGCAGAGCAA [G5A U7C G8A U10C G12C G13U], the “exon inclusion enrichment index” value was 0.139.

On to AGUUAUAUAUGGGAGCUCCAGCACAGUGAAAUGGGUAGAAGGGCAGAGCAA [G5A C6U U7A G8U C9A A35G C36U], for which the “exon inclusion enrichment index” value stood at 0.00124.

AGUUGACGACGGGAGCUCCAGCACAGUGAAAUUUACAGAAGGGCAGAGCAA [C6A U7C C9A U10C G33U G34U]: the “exon inclusion enrichment index” value was determined as 1.05.

As to AGUUCACACAGGGAGCUCCCCCACAGUGAAAUGGACAGAAGGGCAGAGCAA [G5C C6A U7C G8A U10A A20C G21C], the “exon inclusion enrichment index” value is 0.00894.

AGUUUCUUUUGGGAGCUCCAGCACAGUGAAAUGGACAGAAGGGCAGACCAA [G5U G8U C9U G48C]: the “exon inclusion enrichment index” value turned out to be 0.251.
